Assay results: US20080020964A1, “Test System for the Discovery of Substances for the Promotion of Neuraxonal Growth” (priority 2003, published 2008)

B1: hnRNP-Q: heterogeneous nuclear ribonucleic protein Q, epitope-tagged wildtype form overexpressed from an expression plasmid (protein, UniProt O60506 2-623, looked up)
Heterogeneous nuclear …: ATEHVNGNGTEEPMDTTSAVIHSENFQTLLDAGLPQKVAEKLDEIYVAGLVAHSDLDERAIEALKEFNEDGALAVLQQFKDSDLSHVQNKSAFLCGVMKTYRQREKQGTKVADSSKGPDEAKIKALLERTGYTLDVTTGQRKYGGPPPDSVYSGQQPSVGTEIFVGKIPRDLFEDELVPLFEKAGPIWDLRLMMDPLTGLNRGYAFVTFCTKEAAQEAVKLYNNHEIRSGKHIGVCISVANNRLFVGSIPKSKTKEQILEEFSKVTEGLTDVILYHQPDDKKKNRGFCFLEYEDHKTAAQARRRLMSGKVKVWGNVGTVEWADPIEDPDPEVMAKVKVLFVRNLANTVTEEILEKAFSQFGKLERVKKLKDYAFIHFDERDGAVKAMEEMNGKDLEGENIEIVFAKPPDQKRKERKAQRQAAKNQMYDDYYYYGPPHMPPPTRGRGRGGRGGYGYPPDYYGYEDYYDYYGYDYHNYRGGYEDPYYGYEDFQVGARGRGGRGARGAAPSRGRGAAPPRGRAGYSQRGGPGSARGVRGARGGAQQQRGRGVRGARGGRGGNVGGKRKADGYNQPDSKRRQTNNQNWGSQPIAQQPLQGGDHSGNYGYKSENQEFYQDTFGQQWK
modifications: epitope tag
B2: hnRNP-R: heterogeneous nuclear ribonucleic protein R, epitope-tagged wildtype form overexpressed from an expression plasmid (protein, UniProt O43390 2-633, looked up)
Heterogeneous nuclear …: ANQVNGNAVQLKEEEEPMDTSSVTHTEHYKTLIEAGLPQKVAERLDEIFQTGLVAYVDLDERAIDALREFNEEGALSVLQQFKESDLSHVQNKSAFLCGVMKTYRQREKQGSKVQESTKGPDEAKIKALLERTGYTLDVTTGQRKYGGPPPDSVYSGVQPGIGTEVFVGKIPRDLYEDELVPLFEKAGPIWDLRLMMDPLSGQNRGYAFITFCGKEAAQEAVKLCDSYEIRPGKHLGVCISVANNRLFVGSIPKNKTKENILEEFSKVTEGLVDVILYHQPDDKKKNRGFCFLEYEDHKSAAQARRRLMSGKVKVWGNVVTVEWADPVEEPDPEVMAKVKVLFVRNLATTVTEEILEKSFSEFGKLERVKKLKDYAFVHFEDRGAAVKAMDEMNGKEIEGEEIEIVLAKPPDKKRKERQAARQASRSTAYEDYYYHPPPRMPPPIRGRGRGGGRGGYGYPPDYYGYEDYYDDYYGYDYHDYRGGYEDPYYGYDDGYAVRGRGGGRGGRGAPPPPRGRGAPPPRGRAGYSQRGAPLGPPRGSRGGRGGPAQQQRGRGSRGSRGNRGGNVGGKRKADGYNQPDSKRRQTNNQQNWGSQPIAQQPLQQGGDYSGNYGYNNDNQEFYQDTYGQQWK
modifications: epitope tag

Legend:
PC12 cells [1] = assay: Neurite growth in PC12 cells transiently transfected with Smn or hnRNP-R and -Q; type: cell-based, rat; conditions: transient overexpression, differentiation with 50 ng/ml NGF for three days
Experimental: Rat pheochromocytoma cells (PC12) were cultivated in DMEM (Invitrogen, Carlsbad, Calif., USA)+10% horse serum+5% fetal calf serum+antibiotics. Before the transfection, the cells were plated out in a high density in 24-well culture dishes and transfected with 1 μg plasmid DNA (Lipofectamine 2000; Invitrogen, Carlsbad, Calif., USA). For this purpose, expression plasmids were used, into which wildtype forms marked with epitope tags (HA tag of FLAG tag) or mutated versions of Smn, hnRNP-R or hnRNP-Q have been cloned. On the day after the transfection, the cells were plated out in 35 mm culture dishes on glass plates coated with poly-DL-or nithine in a density of 1,000 cells/cm^2. As a differentiation medium, DMEM+2% horse serum and 1% fetal calf serum+50 ng/ml NGF+antibiotics were used. After three days, the cells were fixed and stained. The PC12 cells were fixed with 4% paraformaldehyde (PFA) in buffered common salt solution (PBS). […] After washing again with TBS-T, the cells were embedded in Mowiol and evaluated at the fluorescence microscope or the confocal microscope as mentioned above.

PC12 cells [2] = assay: Neurite growth in Smn or hnRNP-R or -Q overexpressing stable PC12 cell lines; type: cell-based, rat; conditions: differentiated seven days
Experimental: For preparing stable cell lines, PC12 cells were cultivated as described above, and transfected with expression vectors for the wildtype form or mutated Smn, hnRNP-R or hnRNP-Q. Thereafter, the cells were selected in a small cell density with the antibiotic G418 with regard to their neomycin resistance. Individual clones were tested by Western blot analysis for their stable expression of the constructs to be expressed. For measuring the neurite length, the cells were plated out as described above on coated glass plates, differentiated by the addition of differentiation medium and fixed, stained after seven days, and the neurite growth was quantified as described above.

PC12 cell lines = assay: β-actin content in neurites and growth cones of cultivated PC12 cell lines (immunostaining); type: cell-based, rat; conditions: stable PC12 cell lines, anti-actin / anti-β-actin antibodies
Experimental: The cultivation of PC12 cell lines and the fixation, staining and evaluation was performed as described above. As antibodies, monoclonal anti-Smn antibodies (BD Biosciences, Lexington, Ky., USA, 1:500), rabbit anti-hnRNP-R antibodies (Rossoll et al., 2002; 1:1,000), anti-actin (Roche, Bale, Switzerland, 1:200) and β-actin (Abcam, Cambridge, UK; 1:1,000) were used. Since in neurites preferably β-actin is localized, the results are similar for anti-actin and specifically anti-β-actin.

[3] = system: 3′ untranslated region of β-actin mRNA; assay: Binding of radioactively marked β-actin mRNA to immunoprecipitated HA-marked hnRNP-R (filter, PSL); conditions: HA-marked protein from transfected HEK 293 cells, 32P-marked RNA, 30 minutes at room temperature
Experimental: The untranslated 3′ regions of β-actin from the stop codon to the poly-A sequence or the so-called zipcode region (Kislauskis et al., 1994) were amplified by RT-PCR and cloned into a plasmid with the binding site for the T7 RNA polymerase (pTZ19). Optionally, a poly-A tail of 30 nucleotides was added. (Used primers:
actinUTRfwd […], actinUTRpolyAfullrev, ATGAGAATTC-T(30)-[…], actinUTRpolyAziprev, ATGA-GAATTC-T(30)-[…], actinUTRfullrev, […]). The plasmids were linearized by digestion with EcoRI at the 3′ end, and were purified. […]
A cell line from human embryonic kidney cells (HEK 293) was transfected with expression constructs marked by HA epitope for the wildtype forms or mutated versions of Smn or hnRNP-R. After 48 hours, the cells were lysated in lysis buffer (25 mM Tris-HCl pH=8.0, 137 mM NaCl, 2 mM EGTA, 2 mM EDTA, 10% glycerol, 1% Triton X-100, 0.05% β-mercaptoethanol and protease inhibitors; Roche, Bale, Switzerland), and the HA-marked proteins were purifies by immunoprecipitation with anti-HA agarose (HA.11, Covance, Denver, Pa., USA). […] These filters were exposed with phosphoimager plates (BAS-2500, Photo Film Europe GmbH, Duesseldorf, Germany), and the bound radioactivity was measured as photo-stimulating luminescence (PSL) by means of the AIDA software package (Raytest, Straubenhardt, Germany).

Molecule | effect on neurite growth (PC12 cells [1]) | neurite length versus control cell lines (untransfected or empty plasmid) (PC12 cells [2]) | β-actin staining in the growth zones of the neurites (PC12 cell lines) | binding to the 3′ untranslated region of β-actin mRNA [3]
SmnY272C: Smn with a point mutation, no interaction with hnRNP-R, also found in SMA patients | no stimulating effect | – | – | –
B1 | – | three times longer neurites | – | –
B2 | – | three times longer neurites | strong concentration of β-actin | bind to the 3′ untranslated region of β-actin mRNA
